Drawing on patent publication US20240270825A1 (CENTIVAX, published 2024), this text covers binding result, Kd and koff for 19 molecules.

The labels stand for the following.
B1: COVID19_P10_A09 (scFv, V domains shown)
VH: QVQLVQSGAEVKKPGSSVKVSCKASGYTFTDYYIHWVRQAPGQGLEWMGWMNPNSGNTGYAQNFQGRVTITADESTSTAYMELSSLRSEDTAVYYCAGGSGISTAWDVWGQGTLVTVSS
VL: DIVMTQSPDSLAVSLGERATIRCTSSLSLQDRSNNKNYLTWYQQKPGQPPKLLIYWASTRESGVPDRFSGSGSGTDFTLTISSLQAEDVAVYYCQQHYSAPLTFGGGTKVEIKR
B2: COVID19_P09_C09 (scFv, V domains shown)
VH: QVQLVQSGAEVKKPGSSVKVSCKASGGTFSSYAISWVRQAPGQGLEWMGIIDPSGGSTSYAQQFQGRVTITADESTSTAYMELSSLRSEDTAVYYCAGGSGISTPMDVWGQGTLVTVSS
VL: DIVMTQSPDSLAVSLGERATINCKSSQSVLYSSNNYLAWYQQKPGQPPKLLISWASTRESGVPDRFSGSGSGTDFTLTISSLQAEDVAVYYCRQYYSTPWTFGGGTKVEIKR
B3: COVID19_P21_B08 (scFv, V domains shown)
VH: B2 VH with I50V, D52N, P53T, S54G, T58V, S59T, Q63K, G99H, S100W
VL: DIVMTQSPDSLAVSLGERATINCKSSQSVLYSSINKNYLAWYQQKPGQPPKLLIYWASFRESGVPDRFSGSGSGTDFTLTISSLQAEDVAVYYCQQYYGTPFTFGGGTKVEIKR
B4: COVID19_P22_E12 (scFv, V domains shown)
VH: QVQLVQSGAEVKKPGSSVKVSCKASGGTFSSYAINWVRQAPGQGLEWMGGIIPVLHTVDYAQRLQGRVTITADESTSTAYMELSSLRSEDTAVYYCAGEWGISTPMDVWGQGTLVTVSS
VL: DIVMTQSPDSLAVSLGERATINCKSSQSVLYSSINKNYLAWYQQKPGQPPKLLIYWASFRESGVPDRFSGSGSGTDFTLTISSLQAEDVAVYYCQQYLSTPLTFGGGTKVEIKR
B5: COVID19_P21_A12 (scFv, V domains shown)
VH: B4 VH with N35S, G50S, I51V, L55F, H56G, T57R, V58P, D59N, R63K, L64F
VL: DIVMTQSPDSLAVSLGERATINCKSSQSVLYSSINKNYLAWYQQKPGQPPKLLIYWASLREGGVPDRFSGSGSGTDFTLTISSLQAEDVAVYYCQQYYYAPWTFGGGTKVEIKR
B6: COVID19_P22_F07 (scFv, V domains shown)
VH: QVQLVQSGAEVKKPGSSVKVSCKASGGTFSSYAISWVRQAPGQGLEWMGGIIPIFGSTASYAQKFQGRVTITADESTSTAYMELSSLRSEDTAVYYCAGEWGISTPMDVWGQGTLVTVSS
VL: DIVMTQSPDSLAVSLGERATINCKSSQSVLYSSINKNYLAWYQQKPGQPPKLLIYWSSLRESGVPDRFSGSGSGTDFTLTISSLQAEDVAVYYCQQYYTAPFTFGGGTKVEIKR
B7: COVID19_P21_F08 (scFv, V domains shown)
VH: QVQLVQSGAEVKKPGSSVKVSCKASGGTFSTYAFNWVRQAPGQGLEWMGVINTGGGSVTYAQKFQGRVTITADESTSTAYMELSSLRSEDTAVYYCAGGSGISTPGAVWGQGTLVTVSS
VL: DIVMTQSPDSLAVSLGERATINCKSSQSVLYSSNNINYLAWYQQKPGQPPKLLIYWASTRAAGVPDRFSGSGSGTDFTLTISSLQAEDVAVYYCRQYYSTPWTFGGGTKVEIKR
B8: COVID19_P21_F11 (scFv, V domains shown)
VH: QVQLVQSGAEVKKPGSSVKVSCKASGGTFSSYAISWVRQAPGQGLEWMGIIYPGDSTARYSQKFQGRVTITADESTSTAYMELSSLRSEDTAVYYCAGGSGISTLYDVWGQGTLVTVSS
VL: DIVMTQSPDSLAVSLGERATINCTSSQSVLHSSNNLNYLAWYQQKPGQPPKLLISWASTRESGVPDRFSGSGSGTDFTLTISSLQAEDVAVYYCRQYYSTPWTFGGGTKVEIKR
B9: COVID19_P22_B12 (scFv, V domains shown)
VH: B8 VH with F29L, T57E, A58T, L105P, Y106R, D107S
VL: DIVMTQSPDSLAVSLGERATINCKSSRILSYSPDNKNYLAWYQQKPGQPPKLLIYWASTRESGVPDRFSGSGSGTDFTLTISSLQAEDVAVYYCQQSYITPYTFGGGTKVEIKR
B10: COVID19_P21_F04 (scFv, V domains shown)
VH: B2 VH with I50Q, D52N, G56D, S59R, Q63K
VL: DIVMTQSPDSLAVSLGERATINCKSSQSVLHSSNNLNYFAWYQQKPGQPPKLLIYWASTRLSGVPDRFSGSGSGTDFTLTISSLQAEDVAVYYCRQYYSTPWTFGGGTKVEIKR
B11: COVID19_P09_G02 (scFv, V domains shown)
VH: B8 VH with A58T, R59N, G99H, S100W, L105P, Y106M
VL: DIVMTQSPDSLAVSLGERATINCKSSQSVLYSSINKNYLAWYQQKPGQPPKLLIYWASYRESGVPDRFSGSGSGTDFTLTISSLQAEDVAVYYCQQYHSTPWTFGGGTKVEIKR
B12: COVID19_P09_E11 (scFv, V domains shown)
VH: B8 VH with S31N, Y32H, P41Y, S56G, A58T, L105P, Y106M
VL: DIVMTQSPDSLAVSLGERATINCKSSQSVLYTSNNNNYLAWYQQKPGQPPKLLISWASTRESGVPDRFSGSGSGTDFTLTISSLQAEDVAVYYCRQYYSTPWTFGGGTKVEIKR
B13: COVID19_P09_H08 (scFv, V domains shown)
VH: B4 VH with N35S, V54I, L55F, H56G, V58T, D59N, R63K, L64F
VL: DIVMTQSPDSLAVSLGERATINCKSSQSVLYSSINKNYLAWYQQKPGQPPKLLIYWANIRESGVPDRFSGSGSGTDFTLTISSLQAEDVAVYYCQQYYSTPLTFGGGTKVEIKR
B14: COVID19_P21_B09 (scFv, V domains shown)
VH: B8 VH with G27Y, S30T, S31G, Y32H, A33Y, I34M, S35H, T57E, L105P, Y106M
VL: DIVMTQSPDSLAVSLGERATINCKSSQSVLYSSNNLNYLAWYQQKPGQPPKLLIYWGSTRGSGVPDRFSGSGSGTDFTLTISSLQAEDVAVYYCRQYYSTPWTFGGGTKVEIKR
B15: COVID19_P09_A09 (scFv, V domains shown)
VH: B8 VH with A58T, A97Y, G98S, L105P, Y106M
VL: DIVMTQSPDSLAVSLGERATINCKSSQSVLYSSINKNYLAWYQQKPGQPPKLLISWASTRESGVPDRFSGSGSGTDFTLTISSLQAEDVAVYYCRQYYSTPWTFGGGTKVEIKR
B16: COVID19_P09_B07 (scFv, V domains shown)
VH: B4 VH with N35S, V54T, H56G, V58A, D59N, R63K, L64F, E99S
VL: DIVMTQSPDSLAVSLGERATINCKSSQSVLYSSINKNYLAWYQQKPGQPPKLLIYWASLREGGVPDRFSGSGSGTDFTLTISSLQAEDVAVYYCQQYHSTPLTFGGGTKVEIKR
B17: COVID19_P21_E12 (scFv, V domains shown)
VH: B4 VH with S30I, N35S, V54T, H56G, V58Y, D59N, R63K, L64F, E99S
VL: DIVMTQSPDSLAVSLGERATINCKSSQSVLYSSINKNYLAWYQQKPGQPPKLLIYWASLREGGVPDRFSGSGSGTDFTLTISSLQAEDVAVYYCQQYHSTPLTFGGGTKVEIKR
B18: COVID19_P09_E05 (scFv, V domains shown)
VH: B8 VH with A58T, A97Y, G98S, L105P, Y106M
VL: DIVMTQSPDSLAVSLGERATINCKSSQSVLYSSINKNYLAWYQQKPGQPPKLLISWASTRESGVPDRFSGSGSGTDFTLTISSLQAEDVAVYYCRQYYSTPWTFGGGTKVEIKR
B19: COVID19_P10_B06 (scFv, V domains shown)
VH: B8 VH with A58T, A97Y, G98S, L105P, Y106M
VL: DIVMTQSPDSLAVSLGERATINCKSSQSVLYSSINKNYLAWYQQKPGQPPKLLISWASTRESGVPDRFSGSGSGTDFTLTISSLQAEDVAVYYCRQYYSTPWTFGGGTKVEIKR

Substitutions are numbered along the chain they refer to.

In one test the target is T1, SARS-CoV-1 Receptor Binding Domain (RBD) protein (SARS-CoV-1, UniProt P59594 306-527).
T1 construct: also called SARS1
Briefly: SPR Carterra LSA, scFv captured via anti-V5.
Turning to B1, the binding result is given as “no binding (tested: 300 nM)”.
On the same count and under the same terms, the value for B2 was “no binding (tested: 300 nM)”; that for B3 was “no binding (tested: 300 nM)”.
Consider B4, for which the binding result was “no binding (tested: 300 nM)”.
On the same count and under the same terms, the same measure for B5: “no binding (tested: 300 nM)”.
The same measure, in the same setting: the value for B6 was “no binding (tested: 300 nM)”; that for B7 was “no binding (tested: 300 nM)”.
The same measure, in the same setting: the same measure for B8: “no binding (tested: 300 nM)”; for B9: “no binding (tested: 300 nM)”; for B10: “no binding (tested: 300 nM)”.
In the case of B11, the binding result is reported as “no binding (tested: 300 nM)”.
Take B12: the binding result is on record as “no binding (tested: 300 nM)”.
On the same count and under the same terms, the value for B13 was “no binding (tested: 300 nM)”; that for B14 was “no binding (tested: 300 nM)”.
The same measure, in the same setting: the same measure for B15: “no binding (tested: 300 nM)”; for B16: “no binding (tested: 300 nM)”; for B17: “no binding (tested: 300 nM)”.
As for B18, the binding result was “no binding (tested: 300 nM)”.
Take B19: the binding result is reported as “no binding (tested: 300 nM)”.

The next test has as its target T2, MERS Receptor Binding Domain (RBD) protein (Middle East Respiratory Syndrome (MERS) …, UniProt K9N5Q8 367-606).
T2 construct: also called Middle East Respiratory Syndrome (MERS) virus
T2 sequence: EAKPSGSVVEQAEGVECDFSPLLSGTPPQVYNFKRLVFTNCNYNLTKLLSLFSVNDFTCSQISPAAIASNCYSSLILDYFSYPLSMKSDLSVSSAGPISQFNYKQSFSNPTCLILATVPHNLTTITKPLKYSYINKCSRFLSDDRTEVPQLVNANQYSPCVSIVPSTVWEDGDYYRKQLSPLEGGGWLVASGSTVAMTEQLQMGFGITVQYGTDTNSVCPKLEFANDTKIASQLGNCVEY
Briefly: SPR Carterra LSA, scFv captured via anti-V5.
Take B1: the binding result was “no binding (tested: 300 nM)”.
The same measure, in the same setting: the value for B2 was “no binding (tested: 300 nM)”; that for B3 was “no binding (tested: 300 nM)”; that for B4 was “no binding (tested: 300 nM)”.
Turning to B5, the binding result is “no binding (tested: 300 nM)”.
Turning to B6, the binding result is reported as “no binding (tested: 300 nM)”.
For B7, the binding result is “no binding (tested: 300 nM)”.
The same measure, in the same setting: the value for B8 was “no binding (tested: 300 nM)”.
As to B9, the binding result is listed as “no binding (tested: 300 nM)”.
B10: the binding result is on record as “no binding (tested: 300 nM)”.
With B11, the binding result is “no binding (tested: 300 nM)”.
Turning to B12, the binding result is on record as “no binding (tested: 300 nM)”.
Still for that read-out and setting: the value for B13 was “no binding (tested: 300 nM)”.
With B14, the binding result is on record as “no binding (tested: 300 nM)”.
Still for that read-out and setting: the same measure for B15: “no binding (tested: 300 nM)”; for B16: “no binding (tested: 300 nM)”.
Turning to B17, the binding result is “no binding (tested: 300 nM)”.
Same read-out and setting: the value for B18 was “no binding (tested: 300 nM)”; that for B19 was “no binding (tested: 300 nM)”.

The target of the next test is SARS-CoV-2 Receptor Binding Domain (RBD) protein (SARS-CoV-2, UniProt P0DTC2 319-541). Briefly: SPR Carterra LSA, scFv captured via anti-V5, 1:1 fit.
With B8, the affinity, expressed as Kd, was 1.1 nM and the koff (as a rule, the rate constant with which the complex falls apart) amounted to 5.7e-05 s⁻¹.
